# Measurements as given in article PMC2972665 (Biochemistry, 2010).
# B1: Wild type SgrAI (enzyme, Streptomyces griseus, UniProt Q9F6L0 1-339, looked up)
# chain: MPFTYSIEATRNLATTERCIQDIRNAPVRNRSTQFQLAQQNMLAYTFGEVIPGFASAGINGMNYRDVIGRPVENAVTEGTHFFRDDFRVDSNAKAKVAGDIFEIVSSAVMWNCAARWNSLMVGEGWRSQPRYSRPTLSPSPRRQVAVLNLPRSFDWVSLLVPESQEVIEEFRAGLRKDGLGLPTSTPDLAVVVLPEEFQNDEMWREEIAGLTRPNQILLSGAYQRLQGRVQPGEISLAVAFKRSLRSDRLYQPLYEANVMQLLLEGKLGAPKVEFEVHTLAPEGTNAFVTYEAASLYGLAEGRSAVHRAIRELYVPPTAADLARRFFAFLNERMELVNG
# Biological target: the molecule itself
# Assay: AUC
protein,measurement,value
B1,stoichiometry N,2 SgrAI chains in the DNA bound dimer
